One substance from article PMC9064290 can be followed below.

The target of this assay is α1-specific anti-SynGAP antibody (06–800). The assay can be described thus: western blot of cell lysates, band intensity quantified. The note with it: H293T cells transfected with wild-type or PBM EGFP-SynGAPα1; probed with Pan-SynGAP (D20C7) and α1-specific antibody; n = 4; parent: est. 1.0; read off a plot.

Take “EGFP-SynGAPα1 T/I; V/E (C-terminal PDZ-binding motif QTRV changed to QIRE)”: the ratio to parent was determined as 0.45.
